Results: article PMC4797271

How the values were obtained:
Experiment in all cases: EMSA
[1] = biological target: T1, ComA (Bacillus subtilis (W168?)) (UniProt P14204); conditions: EMSA: 10 mM HEPES pH 7.6, 2 mM MgCl2, 0.1 mM EDTA, 200 mM KCl, 5 mM DTT, 10% glycerol, 10 ng DNA in 15 ul, 20 min, room temperature
T1 sequence: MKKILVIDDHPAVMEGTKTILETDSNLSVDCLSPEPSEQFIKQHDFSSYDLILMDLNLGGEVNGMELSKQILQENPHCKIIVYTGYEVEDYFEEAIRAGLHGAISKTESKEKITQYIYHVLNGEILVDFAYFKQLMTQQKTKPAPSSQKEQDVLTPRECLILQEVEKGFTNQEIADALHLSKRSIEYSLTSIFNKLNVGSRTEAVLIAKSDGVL

[2] = biological target: T2, ComA;RNA polymerase alpha subunit (Bacillus subtilis (W168?);Bacillus subtilis) (UniProt P14204+P20429); conditions: EMSA: 10 mM HEPES pH 7.6, 2 mM MgCl2, 0.1 mM EDTA, 200 mM KCl, 5 mM DTT, 10% glycerol; 10 ng DNA in 15 ul, 20 min, room temperature
T2 sequence 1: T1 sequence
T2 sequence 2: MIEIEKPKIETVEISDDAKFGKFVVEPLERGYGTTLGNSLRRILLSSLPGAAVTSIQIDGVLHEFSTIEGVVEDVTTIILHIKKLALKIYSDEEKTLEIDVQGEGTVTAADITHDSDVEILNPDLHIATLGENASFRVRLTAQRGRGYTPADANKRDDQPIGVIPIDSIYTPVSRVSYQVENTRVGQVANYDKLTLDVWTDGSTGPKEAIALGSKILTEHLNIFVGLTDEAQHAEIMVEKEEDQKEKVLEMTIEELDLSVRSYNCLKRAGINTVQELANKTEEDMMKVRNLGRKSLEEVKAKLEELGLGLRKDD

[3] = biological target: ComA;sigma factor sigmaA (Bacillus subtilis (W168?);Bacillus subtilis) (UniProt P14204+P06224); conditions: EMSA: 10 mM HEPES pH 7.6, 2 mM MgCl2, 0.1 mM EDTA, 200 mM KCl, 5 mM DTT, 10% glycerol; 10 ng DNA in 15 ul, 20 min, room temperature
Chain of ComA;sigma factor sigmaA (Bacillus subtilis (W168?);Bacillus subtilis) (P06224 whole entry, one chain of several): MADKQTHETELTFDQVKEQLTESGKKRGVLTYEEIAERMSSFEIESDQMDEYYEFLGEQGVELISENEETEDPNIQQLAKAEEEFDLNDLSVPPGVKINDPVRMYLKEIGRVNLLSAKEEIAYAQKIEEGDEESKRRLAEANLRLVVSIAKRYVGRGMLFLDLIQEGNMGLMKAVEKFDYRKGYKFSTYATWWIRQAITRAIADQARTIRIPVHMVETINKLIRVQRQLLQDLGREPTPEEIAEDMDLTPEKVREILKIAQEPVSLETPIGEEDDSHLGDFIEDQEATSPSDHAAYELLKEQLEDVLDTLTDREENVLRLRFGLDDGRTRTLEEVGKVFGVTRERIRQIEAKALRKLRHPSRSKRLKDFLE

Substance	binding [1]	also measured
AAAACCAAAAGGCCAATGTCGGCCTTTTGGTTTTTTTGCGGTCTTTGCGGTGGGATTTTGCAGAATGCCGCAATAGGATAGCGGAACATTTTCGGTTCTGAATGTCCCTCAATTTGCTATTATATTTTTGTG (double strand) [Ppel]	binds	
GTTACTGTCAAGTCGCAAAAGAATTGCTATGACCGAAAAAAAACCGCAAAGGAATAGATATAAGGTACCTTTTTGCAATTCATCTTTGTAAAATAAAGGTTATTCTGACATAATACAATTAATGTAAAAATTCGCACAATTTTATGTAAGGATGGGGGAATTTTC (double strand) [PrapI]	binds	
NCrapI (no DR)	> 9.6 µM	
NCyddk (no DR)	> 9.6 µM	
PDR ex1 (RE3 T1C)		binding signal (fold reduced affinity) [1]: 2
PDR ex3 (RE3 G3A)	> 9.6 µM	
PDR ex5 (RE3 G5A)	> 9.6 µM	
PDR ex11 (RE4 G5A)	> 9.6 µM	
PDR ex12 (RE4 G6A)	> 9.6 µM	
PIR-PDR core module fragment		Kd ([1]; apparent Kd, Hill coefficient 1.4): 2400 nM
TAGATTTCCTCCGACCTAATTTAATCCATTGTTTGTAAACATTTCATATCTAATTATATAACATAGACTCCTATTCTAACTACTTATTTTAAAGCAGTCTGGATTGTTTGGGTAATTCATAAAAAAATAAAAGAAAGAAGGAGGAATAGAGTTTTTCTTTTTTTTGTTTGCAATGTTACTGTCAAGTCGCAAAAGAATTGCTATGACCGAAAAAAAACCGCAAAGGAATAGATATAAGGTACCTTTTTGC (double strand) [Pyddk]	binds	
TTAATCCCCCCTTTTGAATTACCCGAGATATGTCATATTTTATCATATTTACAAGAAAAAGAAGAACGCAAAATAACCGCAATTGTCGAATTTCGGCTAACCGCAACAAAAAAGCACG (double strand) [PrapA]	binds	binding [2]: binds; binding [3]: binds
